For this data set, the target named is purified human factor X (UniProt P00742).
UniProt P00742, sequence (P00742 whole entry, looked up): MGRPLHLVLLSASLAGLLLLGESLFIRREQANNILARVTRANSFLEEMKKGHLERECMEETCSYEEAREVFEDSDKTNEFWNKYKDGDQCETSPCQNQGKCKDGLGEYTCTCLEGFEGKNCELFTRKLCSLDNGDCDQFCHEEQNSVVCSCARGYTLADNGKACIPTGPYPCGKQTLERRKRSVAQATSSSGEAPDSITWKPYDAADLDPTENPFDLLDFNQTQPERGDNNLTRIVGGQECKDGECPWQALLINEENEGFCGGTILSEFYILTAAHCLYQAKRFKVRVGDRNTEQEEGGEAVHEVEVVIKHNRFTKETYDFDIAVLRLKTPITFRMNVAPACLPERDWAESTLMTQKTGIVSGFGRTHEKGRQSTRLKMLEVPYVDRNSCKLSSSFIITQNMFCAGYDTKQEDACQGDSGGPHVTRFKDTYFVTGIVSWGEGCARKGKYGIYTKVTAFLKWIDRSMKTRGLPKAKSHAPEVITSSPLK

For the substance “recombinant human factor IX IX-1, single alanine replacement at residue 86”, the KM for factor X, with 0.4 nM FVIIIa is 0.0554 µM; the KM for factor X, without FVIIIa amounted to 0.532 µM; the Kcat, with 0.4 nM FVIIIa was 5.09 s⁻¹; the Kcat, without FVIIIa came to 0.000225 s⁻¹. Moreover, the Vmax of factor Xa generation, with 0.4 nM FVIIIa was 15.1 nM FXa/min; the Vmax of factor Xa generation, without FVIIIa was found to be 0.14 nM FXa/min; the kcat/KM, with 0.4 nM FVIIIa amounted to 9.3e+07 M⁻¹ s⁻¹; the kcat/KM, without FVIIIa turned out to be 429 M⁻¹ s⁻¹.
Take “recombinant wild type human factor IX (IX-7)”: the KM for factor X, with 0.4 nM FVIIIa came out at 0.054 µM; the KM for factor X, without FVIIIa amounted to 0.757 µM; the Kcat, with 0.4 nM FVIIIa was determined as 14.2 s⁻¹; the Kcat, without FVIIIa turned out to be 0.000262 s⁻¹. Moreover, the Vmax of factor Xa generation, with 0.4 nM FVIIIa was 27.8 nM FXa/min; the Vmax of factor Xa generation, without FVIIIa was 0.16 nM FXa/min; the kcat/KM, with 0.4 nM FVIIIa was determined as 2.64e+08 M⁻¹ s⁻¹; the kcat/KM, without FVIIIa was 353 M⁻¹ s⁻¹.

For the origin of these results see patent US20080167219.
